Experimental data reported in patent publication US20240287168A1 (SHANGHAI JEMINCARE PHARMACEUTICAL, published 2024).

Columns and labels:
irrelevant antigen = assay: flow cytometry, yeast-displayed VHH, 10 nM irrelevant antigen, streptavidin-PE (Protocol 3, non-specific binding level)
[1] = target: T1, Biotinylated Human VEGF165 (ACROBiosystems, Cat. No. VE5-H82Q0) (human, UniProt P15692-4 27-191, biotinylated (site not stated)); assay: BLI (Octet RED96e), antibody captured on AHC sensor, 100 nM VEGF165, 1:1 fit
T1 construct: Bought reagent; also called Human VEGF-Bio; human VEGF165-Bio
T1 sequence (P15692 other isoform, or with tags, fused parts or gaps limits assumed): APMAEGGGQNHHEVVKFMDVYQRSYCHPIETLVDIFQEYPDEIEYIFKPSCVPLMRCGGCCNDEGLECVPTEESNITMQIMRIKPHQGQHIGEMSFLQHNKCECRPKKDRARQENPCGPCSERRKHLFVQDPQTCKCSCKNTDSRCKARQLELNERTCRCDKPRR
Procedure: (§1) The antigen and antibody were both diluted with 1×PBST (1×PBS: Sango Biotech, B548117-0500; 0.02% Tween 20: sigma-alorich, P1379), the antigen was used at a concentration of 100 nM, and the antibody was used at a concentration of 50 nM.
(§2) (2) On-board detection of samples (Octet Data Acquisition 11.1.0.11): First, the samples were added to a 96-well plate (Greiner bio-one, 655209), and the system was 200 μL/well. Then the software parameters were set, the plate temperature was set to be 30° C., and the frequency of collecting the standard kinetic signal was 5.0 Hz. Next, the AHC sensor (Fortébio, Cat. No.: 18-0015) was pre-wetted with 1×PBST for 10 minutes, and then detected on the machine. Each cycle consists of the following steps: 1) immersion in the buffer for 60 seconds; 2) detection of whether there is a non-specific binding between antigen and sensor; 3) regeneration of 10 mM glycine solution with pH 1.7; 4) immersion in the buffer for 60 seconds; 5) immobilization of the antibody on the sensor for a time of 20 seconds; 6) immersion of the sensor in the buffer for 180 seconds; 7) binding of the antigen to the antibody for a time of 180 seconds; 8) dissociation of the antigen and the antibody for 10 minutes; 9) sensor regeneration.
Fortebio's Data Analysis 11.0 software was used to measure the binding rate (Ka) and dissociation rate (Kd) of the antigen-antibody in a 1:1 binding mode, and then the equilibrium dissociation constant (KD) of the antibody was calculated.

[2] = target: T1, Biotinylated Human VEGF165 …; assay: BLI (Octet RED96e), antibody captured on AHC sensor, 100 nM VEGF165
Procedure: as §1, §2

[3] = target: T1, Biotinylated Human VEGF165 …; assay: competitive ELISA: antibody titrated with biotinylated human VEGF165 on coated human VEGFR2, SA-HRP, OD450; blocked interaction VEGF165-VEGFR2
Procedure: (§3) A competitive ELISA method was used to determine the activity of the single domain antibody in blocking the binding of VEGF165 to human VEGFR2. […] The next day, the plate was washed 3 times with washing solution PBST (0.05% TWEEN-20: sigma-alorich, P1379), and then the blocking solution PBST+2% BSA (BSA: VWR, 0332-1 KG) was prepared using the washing solution, with 300 μL of blocking solution added to each well, blocked at 37° C. for 1 hour. […] The plate was washed three times with the washing solution, the secondary antibody SA-HRP (sigma, S2438) was diluted 1:5000 with the blocking solution, added to the ELISA plate according to 100 μL/well, and incubated at 37° C. for 1 hour. The plate was washed 3 times with the washing solution, 100 μL of TMB chromogenic solution (Biopanda, Cat. No.: TMB-S-003) were added to each well, and developed color at room temperature in the dark, and then 50 μL of stop solution (Solarbio, Cat. No.: C1058) were added to each well to stop the reaction, and the absorbance was measured at a wavelength of 450 nm.

[4] = target: T1, Biotinylated Human VEGF165 …; assay: flow cytometry, yeast-displayed clone, 1 nM Human VEGF165-Biotin; ratio of binding MFI and displaying MFI
[5] = target: T1, Biotinylated Human VEGF165 …; assay: flow cytometry, yeast-displayed clone, 1 nM Human VEGF165-Biotin
[6] = target: T1, Biotinylated Human VEGF165 …; assay: competitive ELISA: antibody titrated with biotinylated human VEGF165 (formulated at 700 ng/ml) on coated human VEGFR2, SA-HRP, OD450; blocked interaction VEGF165-VEGFR2
Procedure: as §3

[7] = target: T1, Biotinylated Human VEGF165 …; assay: BLI (Octet RED96e), method of Example 4, antibody on AHC sensor, 1:1 fit
Procedure: as §1, §2

[8] = target: T1, Biotinylated Human VEGF165 …; assay: BLI (Octet RED96e), method of Example 4, antibody on AHC sensor
Procedure: as §1, §2

Binder | Binding force [4] | Binding MFI [5] [MFI] | IC50 [6] [µg/mL] | Kd [7] [nM] | koff [7] [s⁻¹] | kon [7] [M⁻¹ s⁻¹] | Response value [8] | also measured
Y20A6, anti-human VEGF165 single domain heavy chain antibody clone displayed on yeast (VHH, not shown: large carriers; small tags and cut ends) VHH: AVQLVESGGGLVQAGGSARLSCAASGSTSDIVSMAWYRQAPGKERDLVAAVFAEDWRYVEDSVRGRFTISRDNTKNTVDLQMNNLKPEDTAIYYCNVRLRITDERRRERLDYWGQGTQVTVSS | – | – | – | – | – | – | – | Irrelevant antigen binding signal (PE MFI) (irrelevant antigen): 21.8 MFI
Ab1910VE6 (Y20A6 VHH fused with IgG1 Fc N297A; original antibody before humanization) (Fc fusion, Expressed in ExpiCHO cells; not shown: IgG1 Fc N297A (purchased from Taizhou Biointron Inc.)) VHH: AVQLVESGGGLVQAGGSARLSCAASGSTSDIVSMAWYRQAPGKERDLVAAVFAEDWRYVEDSVRGRFTISRDNTKNTVDLQMNNLKPEDTAIYYCNVRLRITDERRRERLDYWGQGTQVTVSS | – | – | – | – | – | – | – | Kd [1]: 6.3 nM; koff [1]: 0.00888 s⁻¹; kon [1]: 1.41e+06 M⁻¹ s⁻¹; Response value [2]: 0.442; IC50 [3]: 0.516 µg/mL
Ab1910VE9 parental sequence displayed on the surface of yeast (VHH, also called clone number Ab1910VE9) VHH: EVQLVESGGGLVQPGGSLRLSCAASGSTSDIVSMAWYRQAPGKERELVSAVFAEDWRYVEDSVKGRFTISRDNSKNTVYLQMNSLRAEDTAVYYCNVRLRITDERRRERLDYWGQGTLVTVSS | 11.7 | 42.1 | – | – | – | – | – | –
Ab1910VE9 (Hz20A6.3 humanized VHH fused with IgG1 Fc N297A) (Fc fusion, Expressed in ExpiCHO cells; not shown: IgG1 Fc N297A (purchased from Taizhou Biointron Inc.)) VHH: EVQLVESGGGLVQPGGSLRLSCAASGSTSDIVSMAWYRQAPGKERELVSAVFAEDWRYVEDSVKGRFTISRDNSKNTVYLQMNSLRAEDTAVYYCNVRLRITDERRRERLDYWGQGTLVTVSS | – | – | – | – | – | – | – | Kd [1]: 9.91 nM; koff [1]: 0.0181 s⁻¹; kon [1]: 1.82e+06 M⁻¹ s⁻¹; IC50 [3]: 4.67 µg/mL
Ab1910VE18 (expressed single domain antibody with the Ab1910VE9 parent sequence, molecule before affinity maturation) (VHH, Its theoretical pI (7.5) differs from that of Ab1910VE9 (7), so it is kept apart from Ab1910VE9) VHH: EVQLVESGGGLVQPGGSLRLSCAASGSTSDIVSMAWYRQAPGKERELVSAVFAEDWRYVEDSVKGRFTISRDNSKNTVYLQMNSLRAEDTAVYYCNVRLRITDERRRERLDYWGQGTLVTVSS | – | – | 0.88 | 2.23 | 0.00403 | 1.81e+06 | 0.142 | –
Ab1910VE8 (Hz20A6.2 humanized VHH fused with IgG1 Fc N297A) (Fc fusion, Expressed in ExpiCHO cells; not shown: IgG1 Fc N297A (purchased from Taizhou Biointron Inc.)) VHH: EVQLVESGGGLVQPGGSLRLSCAASGSTSDIVSMAWYRQAPGKERELVSAVFAEDWRYVEDSVKGRFTISRDNSKNTVYLQMNSLRAEDTAVYYCNVRLRITDERRRERLDYWGKGTTVTVSS | – | – | – | – | – | – | – | Kd [1]: 10.5 nM; koff [1]: 0.0184 s⁻¹; kon [1]: 1.75e+06 M⁻¹ s⁻¹; IC50 [3]: 4.18 µg/mL

Further lines, with some results ahead:

Binding force [4] | Binding MFI [5] [MFI] | IC50 [6] [µg/mL] | Kd [7] [nM] | koff [7] [s⁻¹] | kon [7] [M⁻¹ s⁻¹] | Response value [8] | Binder | also measured
– | – | 0.623 | 0.626 | 0.000857 | 1.37e+06 | 0.153 | Ab1910VE24 (expressed affinity-matured single domain antibody, clone YC43B1) (VHH) VHH: EVQLVESGGGLVQPGGSLRLSCAASGSTSDIVSMAWYRQAPGKERELVSAVFAEDWRYVEDSVKGRFTISRDNSKNTVYLQMNSLRAEDTAVYYCNVRLRITDWYSRERLDYWGQGTLVTVSS | –
114 | 503 | – | – | – | – | – | YC43B1, affinity-matured mutant clone of Ab1910VE9 displayed on yeast (VHH, also called antibody number Ab1910VE24) VHH: EVQLVESGGGLVQPGGSLRLSCAASGSTSDIVSMAWYRQAPGKERELVSAVFAEDWRYVEDSVKGRFTISRDNSKNTVYLQMNSLRAEDTAVYYCNVRLRITDWYSRERLDYWGQGTLVTVSS | –
98.2 | 337 | – | – | – | – | – | YC41D1, affinity-matured mutant clone of Ab1910VE9 displayed on yeast (VHH, also called antibody number Ab1910VE21) VHH: EVQLVESGGGLVQPGGSLRLSCAASGSTSDIVSMAWYRQAPGKERELVSAVLAPGWSYVEDSVKGRFTISRDNSKNTVYLQMNSLRAEDTAVYYCNVRLRITDERRRERLDYWGQGTLVTVSS | –
129 | 358 | – | – | – | – | – | YC43H2, affinity-matured mutant clone of Ab1910VE9 displayed on yeast (VHH, also called antibody number Ab1910VE23) VHH: EVQLVESGGGLVQPGGSLRLSCAASGSTSDIVSMAWYRQAPGKERELVSAVFAEDWRYVEDSVKGRFTISRDNSKNTVYLQMNSLRAEDTAVYYCNVRLRIPHQWRTERLDYWGQGTLVTVSS | –
– | – | 0.42 | 0.413 | 0.00051 | 1.24e+06 | 0.154 | Ab1910VE21 (expressed affinity-matured single domain antibody, clone YC41D1) (VHH) VHH: EVQLVESGGGLVQPGGSLRLSCAASGSTSDIVSMAWYRQAPGKERELVSAVLAPGWSYVEDSVKGRFTISRDNSKNTVYLQMNSLRAEDTAVYYCNVRLRITDERRRERLDYWGQGTLVTVSS | –
– | – | 1.24 | 0.728 | 0.00104 | 1.43e+06 | 0.116 | Ab1910VE23 (expressed affinity-matured single domain antibody, clone YC43H2) (VHH) VHH: EVQLVESGGGLVQPGGSLRLSCAASGSTSDIVSMAWYRQAPGKERELVSAVFAEDWRYVEDSVKGRFTISRDNSKNTVYLQMNSLRAEDTAVYYCNVRLRIPHQWRTERLDYWGQGTLVTVSS | –
